Assay results reported in US20170355781A1 (CCAM BIOTHERAPEUTICS, published 2017).

Key:
human CEACAM1 on cells [1] = target: T1, human CEACAM1 on cells (human, UniProt P13688 35-526)
T1 construct: whole, on cells; Used for endogenous CEACAM1 (526mel, Malme 3M, SKmel5, G361, NK 92MI, primary cells) and for 721.221 transfectants; also called hCEACAM1
T1 sequence (looked up): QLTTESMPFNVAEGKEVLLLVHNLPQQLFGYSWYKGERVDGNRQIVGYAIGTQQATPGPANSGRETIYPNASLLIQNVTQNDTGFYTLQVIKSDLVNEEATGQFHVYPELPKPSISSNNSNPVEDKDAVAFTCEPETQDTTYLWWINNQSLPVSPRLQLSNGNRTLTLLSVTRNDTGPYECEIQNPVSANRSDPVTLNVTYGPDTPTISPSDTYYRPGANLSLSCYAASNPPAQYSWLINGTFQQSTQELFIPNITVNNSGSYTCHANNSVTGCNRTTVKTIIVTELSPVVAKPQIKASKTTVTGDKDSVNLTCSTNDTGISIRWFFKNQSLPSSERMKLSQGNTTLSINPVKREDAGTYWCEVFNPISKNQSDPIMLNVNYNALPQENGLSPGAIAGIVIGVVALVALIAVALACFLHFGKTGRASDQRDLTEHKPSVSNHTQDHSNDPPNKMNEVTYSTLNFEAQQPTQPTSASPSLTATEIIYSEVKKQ

[2] = target: chimeric molecule composed of the extracellular portion of human CEACAM1 fused to mouse z-chain, on BW cells (human; mouse, UniProt P13688 35-428; P24161 31-164); assay: cell-based or functional assay
[3] = target: T2, recombinant purified human CEACAM1 (human, UniProt P13688 35-428, limits assumed); assay: indirect ELISA on plate-bound purified human CEACAM1, double dilutions of CM10
T2 construct: also called purified hCEACAM1; Recombinant CEACAM1
T2 sequence (looked up): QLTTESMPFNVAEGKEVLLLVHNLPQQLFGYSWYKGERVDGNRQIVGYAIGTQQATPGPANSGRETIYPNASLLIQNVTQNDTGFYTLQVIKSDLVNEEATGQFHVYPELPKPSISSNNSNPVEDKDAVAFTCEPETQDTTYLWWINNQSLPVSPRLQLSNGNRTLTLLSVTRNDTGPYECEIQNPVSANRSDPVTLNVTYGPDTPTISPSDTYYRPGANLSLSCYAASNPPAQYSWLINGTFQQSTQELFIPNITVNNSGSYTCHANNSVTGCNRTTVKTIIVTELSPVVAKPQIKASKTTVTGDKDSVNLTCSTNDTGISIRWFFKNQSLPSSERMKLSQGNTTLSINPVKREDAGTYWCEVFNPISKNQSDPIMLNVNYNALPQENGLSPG
Method: The binding specificity of CM10 to human CEACAM1 was tested in ELISA assay using purified human CEACAM1. Indirect ELISA using 23 double dilutions of CM10 were used to generate specific binding curve. The results shown in FIG. 2 represent average O.D. from triplicate±SE. Similar results were obtain from other ten independent experiments.

[4] = target: T2, recombinant purified human CEACAM1; assay: SPR, Biacore 3000, antibody immobilized on CM5 chip, recombinant CEACAM1 flowed; three independent experiments
Method: (§1) Each antibody was immobilized onto a single channel of a CM5 sensor chip of Biacore3000 instrument by NHS-EDC coupling chemistry.
(§2) Recombinant CEACAM1 was flowed at 50 μl/min over the chip in various concentrations (0.19, 0.39, 0.78, 1.56, 3.12, 6.25, 12.5 and 25 nM). The running buffer was PBS-ET (10 mM p-buffer pH7.4, 150 mM NaCl, 3.4 mM EDTA and 0.005% tween 20).

[5] = target: T2, recombinant purified human CEACAM1; assay: SPR, Biacore 3000, antibody immobilized on CM5 chip, recombinant CEACAM1 flowed; average of three independent experiments
Method: as §1, §2

[6] = target: T3, CEACAM4 transiently expressed on HEK 293T cells (human, UniProt O75871 36-244); assay: flow cytometry, biotinylated CM10 plus Strep-Avidin APC on HEK 293T cells transiently expressing CEACAM-4
T3 construct: whole, on cells
T3 sequence (looked up): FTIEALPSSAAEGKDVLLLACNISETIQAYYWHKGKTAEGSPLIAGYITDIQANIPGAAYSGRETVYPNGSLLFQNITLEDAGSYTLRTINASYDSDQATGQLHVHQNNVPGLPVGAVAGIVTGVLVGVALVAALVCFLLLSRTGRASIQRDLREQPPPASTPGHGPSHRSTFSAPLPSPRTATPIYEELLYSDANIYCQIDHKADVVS
Method: A standard FACS protocol was used with CM10 conjugated to a Biotin molecule and Strep-Avidin APC as secondary agent. […] Empty histograms represent mAb staining while red histograms represent background staining. At least 10000 cells were used to analyze CM10 binding in each histogram. FAB was calculated by dividing the MFI of the stained cells in the MFI of the background staining.

human CEACAM1 on cells [7] = target: T1, human CEACAM1 on cells; assay: blocking assay by FACS: SKMEL5 cells (CEACAM1 positive) pre-incubated with CM10 and washed, then soluble biotinylated CEACAM5 detected with streptavidin-APC
Method: CEACAM1 positive cell line (SKMel 5) was incubated with an isotype control or CM10 in various concentrations, unbound CM10 was washed twice, followed by incubation with or without soluble biotinylated CEACAM5. The binding of the biotinylated CEACAM5 to the cells was detected by a secondary strepavidin-APC and FACS analysis. The results represent the mean of duplicate wells±SE. Similar results were obtained in two other independent experiments.

chimeric molecule composed of the extracellular portion of human CEACAM1 fused to mouse z-chain, on BW cells (from UniProt P13688 35-428; P24161 31-164) (receptor)
mouse IL-2 secretion (ELISA), BW/221+ co-culture, no CM10 (human CEACAM1 on cells [1]): 289 pg/mL

B1: chimeric monoclonal antibody CM10 (antibody, human IgG1, kappa, V domains shown)
VH: QVQLQQSGAELVRPGTSVKVSCKASGYAFTNNLIEWVKQRPGQGLEWIGVINPGSGDTNYNEKFKGKATLTADKSSNTAYMQLSSLTSDDSAVYFCARGDYYGGFAVDYWGQGTSVTVSS
VL: DIQMTQTTSSLSASLGDRVTISCRTSQDIGNYLNWYQQKPDGTVKLLIYYTSRLHSGVPSRFSGSGSGTDYSLTISNLEQEDIATYFCQQGKSLPRTFGGGTKLEIKR
notes: made in CHO cells; PE-conjugated CM10 was used for the QuantiBRITE count; also called CM10.S91; anti CEACAM1 mAb, CM10
IC50 (read off the curve) of the block of mouse IL-2 secretion in the BW/221+ co-culture [2]: ~10 ng/mL | EC50 (read off the curve) [3]: ~10 ng/mL | Kd [4]: 4.07 to 5.05 nM | Kd [5]: 4.56 nM | binding result [6]: no binding (tested: 1 µg/ml) | IC50 (read off the curve) (human CEACAM1 on cells [7]): ~100 ng/mL
